Test results reported in patent publication US20190004063A1.

Key:
Test in all cases: flow cytometry on modified HEK293T cells without CD74
[1] = target: SLA-DRα*020102 + DQβ1*0303 (pairing 9) on modified HEK293T cells without CD74 (pig)
[2] = target: SLA-DQα1*0204 + DQβ1*0303 (pairing 5) on modified HEK293T cells without CD74 (pig)
[3] = target: SLA-DRα*w04 + DQβ1*0303 (pairing 10) on modified HEK293T cells without CD74 (pig)
[4] = target: SLA-DRα*w04 + DRβ1*0403 (pairing 3) on modified HEK293T cells without CD74 (pig)
[5] = target: SLA-DQα1*0204 + DQβ1*0601 (pairing 6) on modified HEK293T cells without CD74 (pig)
[6] = target: SLA-DQα1*0101 + DQβ1*0303 (pairing 7) on modified HEK293T cells without CD74 (pig)
[7] = target: SLA-DQα1*0101 + DQβ1*0601 (pairing 8) on modified HEK293T cells without CD74 (pig)
[8] = target: SLA-DRα*020102 + DRβ1*0403 (pairing 1) on modified HEK293T cells without CD74 (pig)
[9] = target: SLA-DRα*w04 + DRβ1*1001 (pairing 4) on modified HEK293T cells without CD74 (pig)
[10] = target: SLA-DRα*020102 + DRβ1*1001 (pairing 2) on modified HEK293T cells without CD74 (pig)

Measured: background MFI

CerCLIP.1, a monoclonal antibody specific for invariant chain peptides associated with Class II SLA
1000 MFI: all assays above
